In US20160193299A1, “MODIFIED NUCLEOSIDE, NUCLEOTIDE, AND NUCLEIC ACID COMPOSITIONS” (Moderna Therapeutics, Inc., priority 2011, published 2016):

Columns and labels:
red blood cell (RBC) = test: Example 22 non-human primate study, red blood cell (RBC) count; format: in vivo, cynomolgus monkey
Description: (§1) LNP formulations, shown in Table 31 (above), were administered to non-human primates (NHP) (cynomolgus monkey) (n=2) as intravenous injection (IV). The NHP were administered a single modified mRNA IV dose of 0.5 mg/kg, 0.05 mg/kg or 0.005 mg/kg of G-CSF or EPO in a dose volume of 0.5 mL/kg. The NHPs were bled before dosing with the modified mRNA LNP formulations to determine protein expression in the serum and a baseline complete blood count. After administration with the G-CSF modified mRNA formulation the NHP were bled at 8, 24, 48 and 72 hours to determined protein expression. After administration with the EPO modified mRNA formulation the NHP were bled at 8, 24, 48, 72 hours and 7 days to determined protein expression.

[1] = tested on: interferon-alpha (IFN-alpha); test: Example 22 non-human primate study, cytokine interferon-alpha (IFN-alpha); format: in vivo, cynomolgus monkey
Description: as §1

mice = test: Saline formulation: human G-CSF / EPO in mouse serum; format: in vivo; conditions: 100 ug in F. buffer, bled 13 hours after injection, G-CSF group
Description: The mice were bled at 13 hours after the injection to determine the concentration of the human polypeptide in serum in pg/mL. (G-CSF groups measured human G-CSF in mouse serum and EPO groups measured human EPO in mouse serum).

hematocrit (HCT) = test: Example 22 non-human primate study, hematocrit (HCT); format: in vivo, cynomolgus monkey
Description: as §1

[2] = Female NHP, 0.05 mg/kg, Pre-dose
[3] = Female NHP, 0.5 mg/kg, 14/18 days
[4] = Female NHP, 0.5 mg/kg, 24 hours
[5] = Female NHP, 0.5 mg/kg, Pre-dose
[6] = Male NHP, 0.005 mg/kg, 14/18 days
[7] = Male NHP, 0.005 mg/kg, 24 hours
[8] = Male NHP, 0.005 mg/kg, Pre-dose
[9] = Male NHP, 0.05 mg/kg, 14/18 days
[10] = Male NHP, 0.5 mg/kg, 14/18 days
[11] = Female NHP, 0.005 mg/kg, Pre-dose

B1: G-CSF: human G-CSF mRNA SEQ ID NO: 6, polyA ~160 nt, Cap1, fully modified with 5-methylcytosine and pseudouridine (nucleic acid, listed as Homo sapiens)
chain: GGGAAAUAAGAGAGAAAAGAAGAGUAAGAAGAAAUAUAAGAGCCACCAUGGCCGGUCCCGCGACCCAAAGCCCCAUGAAACUUAUGGCCCUGCAGUUGCUGCUUUGGCACUCGGCCCUCUGGACAGUCCAAGAAGCGACUCCUCUCGGACCUGCCUCAUCGUUGCCGCAGUCAUUCCUUUUGAAGUGUCUGGAGCAGGUGCGAAAGAUUCAGGGCGAUGGAGCCGCACUCCAAGAGAAGCUCUGCGCGACAUACAAACUUUGCCAUCCCGAGGAGCUCGUACUGCUCGGGCACAGCUUGGGGAUUCCCUGGGCUCCUCUCUCGUCCUGUCCGUCGCAGGCUUUGCAGUUGGCAGGGUGCCUUUCCCAGCUCCACUCCGGUUUGUUCUUGUAUCAGGGACUGCUGCAAGCCCUUGAGGGAAUCUCGCCAGAAUUGGGCCCGACGCUGGACACGUUGCAGCUCGACGUGGCGGAUUUCGCAACAACCAUCUGGCAGCAGAUGGAGGAACUGGGGAUGGCACCCGCGCUGCAGCCCACGCAGGGGGCAAUGCCGGCCUUUGCGUCCGCGUUUCAGCGCAGGGCGGGUGGAGUCCUCGUAGCGAGCCACCUUCAAUCAUUUUUGGAAGUCUCGUACCGGGUGCUGAGACAUCUUGCGCAGCCGUGAAGCGCUGCCUUCUGCGGGGCUUGCCUUCUGGCCAUGCCCUUCUUCUCUCCCUUGCACCUGUACCUCUUGGUCUUUGAAUAAAGCCUGAGUAGGAAG
modifications: polyA ~160, Cap1, 5mC/pseudouridine modified
- RBC (red blood cell (RBC); [2]): 5.64 10^12/L
- RBC (red blood cell (RBC); [3]): 4.92 10^12/L
- RBC (red blood cell (RBC); [4]): 4.96 10^12/L
- RBC (red blood cell (RBC); Female NHP, 0.5 mg/kg, 3 days): 4.97 10^12/L
- RBC (red blood cell (RBC); Female NHP, 0.5 mg/kg, 7 days): 5.04 10^12/L
- RBC (red blood cell (RBC); [5]): 5.57 10^12/L
- RBC (red blood cell (RBC); [6]): 5.37 10^12/L
- RBC (red blood cell (RBC); [7]): 5.34 10^12/L
- RBC (red blood cell (RBC); Male NHP, 0.005 mg/kg, 3 days): 5.32 10^12/L
- RBC (red blood cell (RBC); Male NHP, 0.005 mg/kg, 7 days): 5.25 10^12/L
- RBC (red blood cell (RBC); [8]): 5.67 10^12/L
- RBC (red blood cell (RBC); [9]): 5.43 10^12/L
- RBC (red blood cell (RBC); Male NHP, 0.05 mg/kg, 24 hours): 4.96 10^12/L
- RBC (red blood cell (RBC); Male NHP, 0.05 mg/kg, 3 days): 5.13 10^12/L
- RBC (red blood cell (RBC); Male NHP, 0.05 mg/kg, 7 days): 5.17 10^12/L
- RBC (red blood cell (RBC); Male NHP, 0.05 mg/kg, Pre-dose): 5.68 10^12/L
- RBC (red blood cell (RBC); [10]): 4.21 10^12/L
- RBC (red blood cell (RBC); Male NHP, 0.5 mg/kg, 24 hours): 4.66 10^12/L
- RBC (red blood cell (RBC); Male NHP, 0.5 mg/kg, 3 days): 4.91 10^12/L
- RBC (red blood cell (RBC); Male NHP, 0.5 mg/kg, 7 days): 4.8 10^12/L
- RBC (red blood cell (RBC); Male NHP, 0.5 mg/kg, Pre-dose): 5.57 10^12/L
- IFN-alpha ([1]; Female NHP, 0.005 mg/kg, 4 days): 0 pg/mL
- IFN-alpha ([1]; Female NHP, 0.005 mg/kg, Day 1 + 8 hr): 0 pg/mL
- IFN-alpha [1, 11]: 0 pg/mL
- IFN-alpha ([1]; Female NHP, 0.05 mg/kg, 4 days): 0 pg/mL
- IFN-alpha ([1]; Female NHP, 0.05 mg/kg, Day 1 + 8 hr): 0 pg/mL
- IFN-alpha [1, 2]: 0 pg/mL
- IFN-alpha ([1]; Female NHP, 0.5 mg/kg, 4 days): 0 pg/mL
- IFN-alpha ([1]; Female NHP, 0.5 mg/kg, Day 1 + 8 hr): 529.2 pg/mL
- IFN-alpha [1, 5]: 0 pg/mL
- IFN-alpha ([1]; Male NHP, 0.005 mg/kg, 4 days): 0 pg/mL
- IFN-alpha ([1]; Male NHP, 0.005 mg/kg, Day 1 + 8 hr): 0 pg/mL
- IFN-alpha [1, 8]: 0 pg/mL
- IFN-alpha ([1]; Male NHP, 0.05 mg/kg, 4 days): 0 pg/mL
- IFN-alpha ([1]; Male NHP, 0.05 mg/kg, Day 1 + 8 hr): 0 pg/mL
- IFN-alpha ([1]; Male NHP, 0.05 mg/kg, Pre-dose): 0 pg/mL
- IFN-alpha ([1]; Male NHP, 0.5 mg/kg, 4 days): 0 pg/mL
- IFN-alpha ([1]; Male NHP, 0.5 mg/kg, Day 1 + 8 hr): 503.8 pg/mL
- IFN-alpha ([1]; Male NHP, 0.5 mg/kg, Pre-dose): 0 pg/mL
- Average Protein Product, serum (human G-CSF) (mice): 45 pg/mL
- HCT (hematocrit (HCT); Female NHP, 0.005 mg/kg, 14/18 days): 0.42 L/L
- HCT (hematocrit (HCT); Female NHP, 0.005 mg/kg, 24 hours): 0.42 L/L
- HCT (hematocrit (HCT); Female NHP, 0.005 mg/kg, 3 days): 0.41 L/L
- HCT (hematocrit (HCT); Female NHP, 0.005 mg/kg, 7 days): 0.42 L/L
- HCT (hematocrit (HCT); [11]): 0.42 L/L
- HCT (hematocrit (HCT); Female NHP, 0.05 mg/kg, 14/18 days): 0.4 L/L
- HCT (hematocrit (HCT); Female NHP, 0.05 mg/kg, 24 hours): 0.4 L/L
- HCT (hematocrit (HCT); Female NHP, 0.05 mg/kg, 3 days): 0.39 L/L
- HCT (hematocrit (HCT); Female NHP, 0.05 mg/kg, 7 days): 0.4 L/L
- HCT (hematocrit (HCT); [2]): 0.44 L/L
- HCT (hematocrit (HCT); [3]): 0.37 L/L
- HCT (hematocrit (HCT); [4]): 0.38 L/L
- HCT (hematocrit (HCT); Female NHP, 0.5 mg/kg, 3 days): 0.38 L/L
- HCT (hematocrit (HCT); Female NHP, 0.5 mg/kg, 7 days): 0.38 L/L
- HCT (hematocrit (HCT); [5]): 0.43 L/L
- HCT (hematocrit (HCT); [6]): 0.41 L/L
- HCT (hematocrit (HCT); [7]): 0.4 L/L
- HCT (hematocrit (HCT); Male NHP, 0.005 mg/kg, 3 days): 0.4 L/L
- HCT (hematocrit (HCT); Male NHP, 0.005 mg/kg, 7 days): 0.39 L/L
- HCT (hematocrit (HCT); [8]): 0.42 L/L
- HCT (hematocrit (HCT); [9]): 0.44 L/L
- HCT (hematocrit (HCT); Male NHP, 0.05 mg/kg, 24 hours): 0.39 L/L
- HCT (hematocrit (HCT); Male NHP, 0.05 mg/kg, 3 days): 0.41 L/L
- HCT (hematocrit (HCT); Male NHP, 0.05 mg/kg, 7 days): 0.42 L/L
- HCT (hematocrit (HCT); Male NHP, 0.05 mg/kg, Pre-dose): 0.44 L/L
- HCT (hematocrit (HCT); [10]): 0.34 L/L
- HCT (hematocrit (HCT); Male NHP, 0.5 mg/kg, 24 hours): 0.37 L/L
- HCT (hematocrit (HCT); Male NHP, 0.5 mg/kg, 3 days): 0.39 L/L
- HCT (hematocrit (HCT); Male NHP, 0.5 mg/kg, 7 days): 0.39 L/L
- HCT (hematocrit (HCT); Male NHP, 0.5 mg/kg, Pre-dose): 0.46 L/L
